# Measurements from patent publication US9732101B2, “Bioreversible boronates for delivery of molecules into cells” (WISCONSIN ALUMNI RESEARCH FOUNDATION, priority 2012, dated 2017).
# Tests used:
# [1] = test system: HeLa cells; experiment: Cellular internalization by flow cytometry; type: cell-based; details: for increase in cellular uptake into HeLa cells: 5 μM, 4 h, relative to unmodified lysozyme; for effect of fructose on enhancement of cellular uptake into HeLa cells: fructose 250 mM
# Experimental: Cell lines were obtained from American Type Culture Collection (Manassas, Va.) and were maintained according to the recommended guidelines. Cells were grown in a cell culture incubator at 37° C. and 5% CO2 in flat-bottomed culture flasks. Cell media was supplemented with 10% (v/v) GIBCO fetal bovine serum (FBS), 100 units/mL penicillin, and 100 μg/mL streptomycin in the appropriate cellular media for HeLa cells: DMEM, high glucose (Invitrogen, Carlsbad, Calif.). Cells were counted by hemocytometry for dispensing into 12-well plates (Corning Costar, Lowell, Mass.).
# BODIPY-FL was excited with a 488 nm solid-state laser and the emission was collected with a 530/30 bandpass filter. At least 10,000 cellular events were acquired for each sample. Data were analyzed using FlowJo 8.1.3 (Treestar, Ashland, Oreg.).
# The day prior to the experiment, 1×10^5HeLa cells/well were plated in 12 well plates. The day of the experiment, the appropriate amount of fructose was dissolved into the cellular medium to obtain a final 250 mM fructose concentration, then it was sterile filtered with a 0.45 μm Whatman (Piscataway, N.J.) syringe filter. Non-fructose containing medium was likewise sterile filtered to maintain consistency between the experimental groups. Stock solutions of fluorescently labeled proteins were diluted into the cell culture to a final concentration of 5 μM. proteins were incubated with cells for four hours, then the cells were rinsed twice with PBS, removed from the cell culture plate with trypsin, placed in flow cytometry tubes containing 80 μL of FBS (to ensure cell viability), and incubated on ice until analyzed by flow cytometry. Final fluorescence values were divided by the percent fluorophore labeling of the protein to determine the corrected value of fluorescence. Experiments were run in triplicate (except for PBA-boronated lysozyme, which was in duplicate) and the data is reported as the mean±standard deviation normalized to the wild type protein uptake.
# Flow cytometry experiments were conducted as described in Example 11 with Fluorescein-conjugated NeutrAvidin and Boronated Fluorescein-conjugated NeutrAvidin (boronated by complexation to the PBA-boronated Biotin-peptide conjugate) in HeLa cells.
# [2] = test system: Pro-5 cells; experiment: Cellular internalization by flow cytometry; type: cell-based, Chinese hamster
# Experimental: (§1) Cell lines were obtained from American Type Culture Collection (Manassas, Va.) and were maintained according to the recommended procedures. Cells were grown in a cell culture incubator at 37° C. under CO2 (5% v/v) in flat-bottomed culture flasks. Cell medium was supplemented with GIBCO fetal bovine serum (FBS) (10% v/v), penicillin (100 units/mL), and streptomycin (100 μg/mL) in the appropriate cellular medium as follows: Pro-5, MEM α+ribonucleosides+deoxyribonucleosides; Lec-2, MEM α-ribonucleosides-deoxyribonucleosides; and K562, RPMI 1640. Cells were counted by hemocytometry for dispensing into 12-well plates (Corning Costar, Lowell, Mass.) or 8-well chambered coverglass slides (Nuc Lab-Tek II, Thermo Scientific).
# (§2) BODIPY-FL was excited with a 488 nm solid-state laser and the emission was collected with a 530/30 bandpass filter. To collect the most reproducible data, for every flow cytometry experiment, the sensitivity (voltage) of the photomultiplier tube was set for all data collections using mid-range Rainbow beads from Spherotech (Lake Forest, Ill.) to a predetermined fluorescence target value. At least 10,000 cellular events were acquired for each sample. Data were analyzed using FlowJo 8.1.3 (Treestar, Ashland, Oreg.).
# (§3) The day prior to an experiment, Pro-5 and Lec-2 cells were plated in 12-well plates at 1×10^5 cells/well. The day of the experiment, the appropriate amount of fructose was dissolved into the cellular medium to obtain a final fructose concentration of 250 mM, and the medium was passed through a 0.45-μm syringe filter from Whatman (Piscataway, N.J.). Non-fructose-containing medium was filtered likewise. Stock solutions of fluorescently labeled ribonucleases were diluted into the cell culture to a final concentration of 5 μM. Ribonucleases were incubated with cells for 4 h. Cells were then rinsed with PBS (2×400 μL), removed from the cell culture plate with trypsin (400 μL, 0.05% (1×) with EDTA; Invitrogen, Carlsbad, Calif.), placed in flow cytometry tubes containing 80 μL of FBS, and incubated on ice until analyzed by flow cytometry. Final fluorescence values were divided by the percent fluorophore labeling of the ribonuclease to determine the corrected value of fluorescence. Experiments were run twice in triplicate unless otherwise indicated. Data is illustrated in FIG. 4A and FIG. 4C.
# [3] = test system: Lec-2 cells; experiment: Cellular internalization by flow cytometry; type: cell-based, Chinese hamster
# Experimental: as §1, §2, §3
# [4] = test system: K-562 cells; experiment: Cell-proliferation assay, CyQUANT NF; type: cell-based, human; details: 48 h, serum-free RPMI 1640, read-out: IC50, inhibition of K-562 cell proliferation
# Experimental: The effect of unmodified G88R RNase A and TMLB-G88R RNase A on the proliferation of K-562 cells was assayed using a CyQUANT® NF Cell Proliferation Assay Kit (Invitrogen). Briefly, 5×10^4 cells/mL were added to each well of a 96-well plate in 100 μL of serum-free RPMI 1640 medium. Cells were incubated with G88R RNase A or TMLB-G88R RNase A for 48 h, with PBS and H2O2 serving as negative and positive controls, respectively. Cells were then washed and incubated in CyQUANT® reagent for 30 min and fluorescence intensity was measured with excitation at ˜485 nm and emission detection at ˜530 nm. Data are the average of two measurements for each concentration, and the entire experiment was repeated in triplicate. The results are shown as the percentage of dye incorporated relative to control cells treated with PBS. Values for IC50 were calculated by fitting the curves by nonlinear regression to the equation: y=100%/(1+10^(log(IC50)-log [ribonuclease])h), where y is the total DNA synthesis following the CyQUANT dye pulse and h is the slope of the curve (FIG. 28).
# [5] = Hydrolysis of labeled protein by cell lysate; type: in vitro ADME, Chinese hamster; details: CHO K1 cell lysate, ambient temperature, 12 h, MALDI-TOF
# Experimental: CHO K1 cells were grown to confluence in a 10-cm^2 dish before their collection and lysis with M-PER (Thermo Fisher Scientific). The presence of esterase activity in the lysate was verified by a colorimetric assay using p-nitrophenyl acetate (data not shown). A solution of TMLB-GFP (10 μg) was added to 200 μL of CHO K1 cell lysate, and the reaction mixture was nutated at ambient temperature for 12 h. The GFP was subsequently purified with HisPur™ Ni-NTA Magnetic Beads (Thermo Fisher Scientific).
# [6] = Hydrolysis of labeled protein by cell lysate; type: in vitro ADME, human; details: K-562 cell lysate, ambient temperature, 12 h, MALDI-TOF
# Experimental: K-562 cells were grown to confluence in a T75 flask before their collection and lysis with M-PER from Thermo Fisher Scientific. The presence of esterase activity in the lysate was verified by a colorimetric assay using p-nitrophenyl acetate (data not shown). A solution of esterified FLAG-RNase A (10 μg) was added to 200 μL of K-562 cell lysate, and the reaction mixture was nutated at ambient temperature for 12 h. FLAG-RNase A was purified with anti-FLAG® M2 Magnetic Beads from Sigma-Aldrich.
# [7] = 5 μM, 4 h, relative to unmodified RNase A
molecule,measurement,setting,value
Boronated Fluorescein-conjugated NeutrAvidin: Fluorescein-conjugated NeutrAvidin boronated by complexation to the PBA-boronated Biotin-peptide conjugate,increase in internalization in HeLa cells,[1]; relative to unmodified Fluorescein-conjugated NeutrAvidin,about 2 fold
"PBA-boronated lysozyme: chicken egg white lysozyme conjugated with 3-aminophenyboronic acid, on average 2.6±1.7 PBA",increase in cellular uptake into HeLa cells,[1],about 20 fold
same,effect of fructose on enhancement of cellular uptake into HeLa cells,[1],decreased
"benzoboroxole-boronated lysozyme: chicken egg white lysozyme conjugated with 5-amino-2-hydroxymethylphenylboronic acid, on average 2.3±1.1 per lysozyme",increase in cellular uptake into HeLa cells,[1],about 4 fold
same,effect of fructose on enhancement of cellular uptake into HeLa cells,[1],decreased
"PBA-boronated RNase A: RNase A conjugated with 3-aminophenylboronic acid, on average 5.3±2.3 PBA per protein (conjugate, UniProt P61823 27-150, looked up, 3-aminophenylboronic acid conjugates, RNase A conjugated with 3-aminophenylboronic acid, on average 5.3±2.3 PBA per protein) Ribonuclease pancreatic: KETAAAKFERQHMDSSTSAASSSNYCNQMMKSRNLTKDRCKPVNTFVHESLADVQAVCSQKNVACKNGQTNCYQSYSTMSITDCRETGSSKYPNCAYKTTQANKHIIVACEGNPYVPVHFDASV",increase in cellular uptake,[2]; [7],2.5-3 fold
same,effect of fructose on enhancement of cellular uptake,[2]; fructose 0.25 M,eliminated
same,increase in cellular uptake,[3]; [7],2.5-3 fold
same,effect of fructose on enhancement of cellular uptake,[3]; fructose 0.25 M,eliminated
"G88R RNase A: cytotoxic G88R variant of ribonuclease A (protein, UniProt P61823 27-150, looked up, variant G88R) Ribonuclease pancreatic: KETAAAKFERQHMDSSTSAASSSNYCNQMMKSRNLTKDRCKPVNTFVHESLADVQAVCSQKNVACKNGQTNCYQSYSTMSITDCRETRSSKYPNCAYKTTQANKHIIVACEGNPYVPVHFDASV",IC50,[4],6.4 ± 0.1 µM
"TMLB-labeled G88R RNase A: G88R RNase A labeled with TMLB-NHS ester, 2±1 labels per protein (conjugate, UniProt P61823 27-150, looked up, variant G88R, TMLB ester labels, G88R RNase A labeled with TMLB-NHS ester, 2±1 labels per protein) Ribonuclease pancreatic: KETAAAKFERQHMDSSTSAASSSNYCNQMMKSRNLTKDRCKPVNTFVHESLADVQAVCSQKNVACKNGQTNCYQSYSTMSITDCRETRSSKYPNCAYKTTQANKHIIVACEGNPYVPVHFDASV",IC50,[4],3.5 ± 0.8 µM
same,reversibility of labeling: removal of labels by cell lysate,[5],removed all of the labels
"esterified FLAG-RNase A: FLAG-RNase A labeled with TMLB-NHS ester, 1.6±0.7 labels per protein (conjugate, UniProt P61823 27-150, looked up, FLAG tag; TMLB ester labels, FLAG-RNase A labeled with TMLB-NHS ester, 1.6±0.7 labels per protein) Ribonuclease pancreatic: KETAAAKFERQHMDSSTSAASSSNYCNQMMKSRNLTKDRCKPVNTFVHESLADVQAVCSQKNVACKNGQTNCYQSYSTMSITDCRETGSSKYPNCAYKTTQANKHIIVACEGNPYVPVHFDASV",reversibility of labeling: removal of labels by cell lysate,[6],regeneration of unlabeled FLAG-RNase A was confirmed
